What all share (assay type): biochemical
A short description of series [1]: In vitro GGR reduction of geranylgeranyl pyrophosphate, products detected by LC-MS-TOF. Also noted: key to GGPP (C20) reduction: +: activity detected; ++: activity higher than for other GGRs. Here is the method:
(§1) Validation of enzymatic substrate reduction was determined by incubating all assays in triplicate for each respective substrate and putative GGR for 1 hour at 37° C. All assays were performed at pH 7.4 in 100 mM sodium phosphate buffer containing 30-150 μM enzyme, 200 µM FAD (Sigma-Aldrich), and 65 mM sodium dithionite (Sigma-Aldrich). Standard assays for alcohol reduction were incubated with 100 μM enzyme and 500 μM (E,E)-farnesol (Alfa-Aesar) or (E,E,E)-geranylgeraniol (Sigma-Aldrich); pyrophosphate assays were performed at 100 μM FPP or GGPP (Sigma-Aldrich). Alcohol-based assays were quenched by liquid extraction using a 3:1 (v:v) LC-grade ethyl acetate solution containing 100 μM dodecanol as a GC internal standard (Sigma-Aldrich). The organic layer was extracted and stored at −20° C. until analysis by GC-MS. Pyrophosphate assays were similarly quenched using LC-grade n-butanol (Sigma-Aldrich) 1:1 (v:v) and centrifuged at 15000×g for 2 minutes. The n-butanol layer was dried for 45 minutes at ambient temperature using a Labconco speedvac, reconstituted in 25 µL of a 62:38 (v:v) acetonitrile/50 mM ammonium carbonate solution, and stored at −20° C. until further analysis by LC-MS-TOF [33]. Characterization of enzymatic hydrolysis of isoprenoid pyrophosphate substrates by SaGGR and PfGGR was performed by quenching the enzyme reactions at 0, 2, 5, 10, 20, 40, and 60 minutes of incubation.
The separation of FPP, GGPP, and their reduced forms was conducted on a ZIC-pHILIC column (150 mm length, 2.1 mm internal diameter, and 5 μm particle size, Merck) using an Agilent Technologies 1200 Series Rapid Resolution high performance liquid chromatography (HPLC) system. Solvents for HPLC were purchased from HoneyWell and were of HPLC grade or higher. The mobile phases used for this analysis were A) 50 mM ammonium carbonate (Fluka, 30-33% NH3 basis) in water and B) acetonitrile. Analytes were eluted isocratically with a mobile phase composition of 62% B at a flow rate of 0.2 mL/min. The total run time of the method was 6.5 min. The temperature of the sample tray was maintained at 6° C. using an Agilent FC/ALS Thermostat. […]
(§2) Data acquisition and processing were performed by the Agilent Technologies MassHunter software package. Product formation was determined using extracted ion chromatogram abundances (±0.02 Da) for each molecule's [M-H]^− mass (Table 4). […] Relative reductase reactivity among GGRs was determined by measuring the fractional abundance of singly-, doubly-, or triply-reduced products to the total ion abundance present for intact and hydrolyzed moieties. Integrated areas for hydrolyzed monophosphate products were assumed to have the same ionization intensities as their pyrophosphate counterparts, as determined by their standard curves measured from 0-120 μM (FIG. 15).

Series [2] is described as follows: In vitro GGR reduction of geranylgeraniol, products analysed by GC-MS. Set-up: key to Geranylgeraniol (C20) reduction: +: activity detected; ++: activity higher than for other GGRs. Here is the method: as §1
(§3) Product identification and quantification of farnesol and hydrofarnesol derivatives were modified from previous detection methods. All GC-MS analyses were determined using an Agilent 6890 gas chromatography instrument coupled to an Agilent 5973 mass selective detector. 1 µL of extracted samples were injected in splitless mode onto an Agilent CycloSil-B column, with helium used as a carrier gas flowing at 1.0 mL/min. Following injection, the oven was held at 50° C. for 30 seconds, then increased to 175° C. at 35° C./min. Farnesol and hydrofarnesols were resolved by increasing the temperature 4° C./min up to 200° C., then increased to 300° C. at a rate of 35° C./min where it was held for 1.5 minutes. Geranylgeraniol and its hydrogenated derivatives were analyzed using the same injection method. After injection, the oven was held at 50° C. for 30 seconds then increased to 235° C. at 35° C./min. Hydrogeranylgeraniols were separated by increasing the oven temperature 4° C./min to 250° C., then ramped to 300° C. at a rate of 35° C./min where it was held for 1.5 minutes.
(§4) The EI-MS detection was initiated after a solvent delay of 5.0 minutes. Detection and classification of hydrofarnesols was performed in scan mode at 9.8 scans/sec ranging from 50-250 m/z in positive ion mode. For geranylgeraniol, the same scan parameters were implemented except for the mass range, which was expanded to 50-300 m/z in positive ion mode. The electron multiplier voltage was set to a gain factor of 1, with the MS ion source and quadrupole set to 230° C. and 150° C., respectively.
(§5) Total ion chromatograms (TIC) were integrated using Agilent Technologies Masshunter software, version 6. Product formation was determined from the TIC area for C15 or C20 alcohol products eluting at each respective retention time. Absolute product concentrations were determined from standard curves (0-200 μM) of either farnesol or geranylgeraniol assuming the TIC area of each reduced product ionizes with an equivalent efficiency to that of the unreduced substrate (FIG. 10). Subsequently, enzyme turnover numbers for isoprenoid reduction were calculated as the total number of nanomoles of prenyl units reduced per milligram of enzyme in 1 hr.

Series [3] can be described thus: In vitro GGR reduction of farnesol, products analysed by GC-MS. Set-up: key to Farnesol (C15) reduction / Farnesol (C15)-full reduction: +: activity detected; ++: activity higher than for other GGRs. Here is the method:
as §1, with “triplicate for each respective substrate and putative GGR for 1 hour at 37° C. All assays were performed at pH 7.4 in 100 mM sodium phosphate” left out
as §3, §4, §5

Series [4] is described as follows: GGR reduction of geraniol. The settings on record: FIG. 1A legend, conditions not stated.
The nature of series [5]: In vitro GGR reduction of farnesyl pyrophosphate, products detected by LC-MS-TOF. Also noted: key to FPP (C15) reduction: +: activity detected; ++: activity higher than for other GGRs. Here is the method: as §1, with “[…] […]” for “Validation of enzymatic substrate reduction was determined by incubating all assays in triplicate for each respective substrate and putative GGR for 1 hour at 37° C. All assays were performed at pH 7.4 in 100 mM sodium phosphate buffer containing 30-150 μM enzyme, 200 µM FAD (Sigma-Aldrich), and 65 mM sodium dithionite (Sigma-Aldrich).”
The separation of FPP, GGPP, and their reduced forms was conducted on a ZIC-pHILIC column (150 mm length, 2.1 mm internal diameter, and 5 μm particle size, Merck) using an Agilent Technologies 1200 Series Rapid Resolution high performance liquid chromatography (HPLC) system. Solvents for HPLC were purchased from HoneyWell and were of HPLC grade or higher. The mobile phases used for this analysis were A) 50 mM ammonium carbonate (Fluka, 30-33% NH3 basis) in water and B) acetonitrile. Analytes were eluted isocratically with a mobile phase composition of 62% B at a flow rate of 0.2 mL/min. The total run time of the method was 6.5 min. The temperature of the sample tray was maintained at 6° C. using an Agilent FC/ALS Thermostat. The column compartment was set to 40° C. A sample injection volume of 2 μL was used throughout.
The HPLC system was coupled to an Agilent Technologies 6210 time-of-flight mass spectrometer (LC-TOF-MS) by a ⅓post-column split. Contact between both instrument set-ups was established using a LAN card in order to trigger the MS into operation upon the initiation of a run cycle from the MassHunter workstation (Agilent Technologies). Electrospray ionization (ESI) was conducted in the negative ion mode and a capillary voltage of −3500 V was utilized. MS experiments were carried out in full scan mode, at 0.86 spectra/second for the detection of [M-H]^− ions. The instrument was tuned for a range of 50-1700 m/z. Prior to LC-TOF-MS analysis, the TOF-MS was calibrated via an ESI-L low concentration tuning mix (Agilent Technologies).
as §2

Series [6] can be described thus: GGR-mediated hydrolysis of prenyl pyrophosphates to monophosphates, time course by LC-MS-TOF. Conditions: standard assay as a function of time, 0-60 minutes. Here is the method: Validation of enzymatic substrate reduction was determined by incubating all assays in triplicate for each respective substrate and putative GGR for 1 hour at 37° C. All assays were performed at pH 7.4 in 100 mM sodium phosphate buffer containing 30-150 μM enzyme, 200 µM FAD (Sigma-Aldrich), and 65 mM sodium dithionite (Sigma-Aldrich). Standard assays for alcohol reduction were incubated with 100 μM enzyme and 500 μM (E,E)-farnesol (Alfa-Aesar) or (E,E,E)-geranylgeraniol (Sigma-Aldrich); pyrophosphate assays were performed at 100 μM FPP or GGPP (Sigma-Aldrich). […]
as §2

Series [7] is described as follows: GGR reduction of geranyl pyrophosphate. Set-up: key to GPP (C10) reduction: +: activity detected; ++: activity higher than for other GGRs.
Where [8] appears, read: 1 hr, 37° C., pH 7.4, error in brackets.
The mark [9] stands for this setting: FIG. 1A legend, conditions not stated.

B1: Ma1-GGR: geranylgeranyl reductase from Methanosarcina acetivorans #1, InterPro Q8TQQ6 (protein, UniProt Q8TQQ6 1-407, looked up)
Digeranylgeranylglycerophospho …: MKDIYDVLVIGAGPAGSIAAKTAAEKGLDVLLIEKRQEIGDPVRCAEGVNKEYLKKHVEIDNSWICADLKGSRIYSPNGTKVEMAEEISGGEVGYVLERKIFDRALAEHAAKAGAEVRVKTRATGLIIEDDFVKGARLMNLGKEYEVRAKIVIGADGVESKVGRWAGIDTSLKPIDIETCAQYLIAGADIDPEYCEFYIGNEIAPGGYVWIFPKGEGKANVGVGILGNRTGKFKPRPVDYLNNFVEKKFPNAKIVEMVFGGVPVSGSIEKTSVNGLMLVGDAARQSDPITGGGILNAMDAGKIAGEAAYEAISSGDVSLEKLEEVYEKRWRETTGHDIDMSLIVKNCFINLKDEDLDSLADSLKEVKFESMRLFDLLQALFKANKKLLWDLRVLFKDAAKEVMKNRT
With B1, the “GGPP (C20) reduction” value in series [1] is on record as “+”. In series [1] (standard assay conditions), the “Reduction of GGPP (in words)” value is recorded as “found to reduce GGPP”.

B2: Sa-GGR: geranylgeranyl reductase from Sulfolobus acidocaldarius, InterPro M1I414, wild type (protein, listed as Sulfolobus acidocaldarius)
chain: MKELKYDVLIIGGGFAGSSAAYQLSRRGLKILLVDSKPWNRIGDKPCGDAVSKAHFDKLGMPYPKGEELENKINGIKLYSPDMQTVWTVNGEGFELNAPLYNQRVLKEAQDRGVEIWDLTTAMKPIFEDGYVKGAVLFNRRTNEELTVYSKVVVEATGYSRSFRSKLPPELPITEDLDDKDADVAYREVLLTKEDIEDHDYLRIFIDQETSPGGYWWYFPKGKNKVNVGLGIQGGMGYPSIHEYYKKYLDKYAPDVDKSKLLVKGGALVPTRRPLYTMAWNGIIVIGDSGFTVNPVHGGGKGSAMISGYCAAKAILSAFETGDFSASGLWDMNICYVNEYGAKQASLDIFRRFLQKLSNDDINYGMKKKIIKEEDLLEASEKGDLHLSVADKAMRVISGLGRPSLLFKLKAVAESMKKIKELYLNYPRSPSSLGSWRREVDNVLTEFNKSLS
Turning to B2, the “Geranylgeraniol (C20) reduction” value in series [2] is “+”. For the same molecule, the “Reduced products formed from geranylgeraniol” value in series [2] (1 hour 37° C., pH 7.4) was “H2-, H4-, H6- and H8-geranylgeraniol”. Also, the “Specific activity of enzymatic GGR reduction on geranylgeraniol (GGOH)” value in series [2] (setting [8]) was 50 (10) nmol terpene units reduced mg^−1 enzyme hr^−1. Further, in series [2] (setting [9]), the “Product of complete reduction of geranylgeraniol” value is on record as “H8-GGOH”. For the same molecule, the “Enzymatic reduction of geranylgeraniol (in words)” value in series [2] (standard assay, 1 hr, 37° C., pH 7.4) is given as “enzymatically reduce geranylgeraniol”. Also, the “Specific activity toward GGOH” value in series [2] (standard assay, stated as lower bound) is listed as “at least 50±10 nmol terpenoids reduced per milligram of enzyme per hour”. For the same molecule, the “GGPP (C20) reduction” value in series [1] is given as “+”. In addition, the “Product of GGPP reduction” value in series [1] (setting [9]) was “H6-GGPP”. In series [3], the “Farnesol (C15) reduction” value is on record as “+” and the “Farnesol (C15)-full reduction” value is given as “+”. The “Formation of fully reduced farnesol” value in series [3] (50° C. and pH 5.5) is listed as “generated a modest amount of H6-FOH”. In series [3] (1 hour 37° C., pH 7.4), the “Reduced products formed from farnesol” value is “H2- and H4-farnesol”. Moreover, the “Reduction of FOH to H2-FOH or H4-FOH (in words)” value in series [3] (1 hr incubation under standard assay conditions) is on record as “found to reduce FOH”. Also, the “Specific activity of enzymatic GGR reduction on farnesol (FOH)” value in series [3] (setting [8]) is reported as 8 (1) nmol terpene units reduced mg^−1 enzyme hr^−1. Also, in series [3] (setting [9]), the “Product of complete reduction of farnesol” value is recorded as “H6-FOH”. In addition, the “Product of complete reduction of geraniol” value in series [4] is listed as “H4-GOH”. Besides, the “FPP (C15) reduction” value in series [5] is “+”. The “Product of FPP reduction” value in series [5] (setting [9]) is “H4-FPP”. In addition, the “Preferential / final product of FPP reduction” value in series [5] (SaGGR variants, pH 5.5, 50° C., kinetic time course) is recorded as “H4-FPP”. Moreover, the FPP consumption entry in series [5] (after two hours of incubation at pH 5.5, 50° C.) is reported as “fully consume FPP”. In addition, in series [5] (standard assay conditions), the “Reduction of FPP (in words)” value is “could reduce FPP”. Besides, the “Rate of first-order substrate hydrolysis, comparison” value in series [6] is “occurs more quickly in SaGGR than for PfGGR”. Further, the “GPP (C10) reduction” value in series [7] is “+”. Besides, in series [7] (setting [9]), the “Product of GPP reduction” value is given as “H2-GPP”.
